Assay results published in the supplement of paper PMC10201428.
± gives the standard deviation of the averaged measurements.

B1: library; a variant is named by its letters at N, in order (parent)
chain: AATGTTGTTGATGCAACCATAAAGTGATATTTAATAATTATTTATAATCAGCAACTTAACCACAAAACAACCATATATTGATATNTCACAAAACAACCATAANTTGATATTTTTGTGAATCGAGTATTTCAGCAAAACTACTGCAGTAAGAA

Experiments:
[1] = variants of: B1; experiment: relative integration efficiency (T-LR orientation) vs wild-type transposon end (log2 (normalized fold change)); transposon end mutated: left end; higher = more efficient transposition; conditions: with VchCAST RNA-guided transposition machinery (E. coli BL21(DE3) host, lacZ target)
Method: (§1)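 Pooled, barcoded VchCAST (Tn6677) mini-transposon donor libraries; each variable transposon-end sequence sits in a fixed pDonor mini-transposon context (10-bp barcode and cargo not included). Left- or right-end libraries were co-transformed with pEffector (TniQ-Cascade, TnsABC, lacZ crRNA, T7, 0.1 mM IPTG) into E. coli BL21(DE3) and grown 18 h at 37 C. T-LR and T-RL junction amplicons were sequenced; output/input barcode fold change was normalised to the mean of four wild-type barcodes and log2-transformed. Two biological replicates; zero-count/undetected variants carry floor values (-10 / -15), censored here. Barcode uncoupling by PCR recombination adds noise.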

[2] = variants of: B1; experiment: relative integration efficiency (T-RL orientation) vs wild-type transposon end (log2 (normalized fold change)); transposon end mutated: left end; higher = more efficient transposition; conditions: with VchCAST RNA-guided transposition machinery (E. coli BL21(DE3) host, lacZ target)
Method: as §1

For TA T76A T78A T84A C87A T104G T113A, the “relative integration efficiency (log2)” value [1] was 0.188 ± 0.023 and the “relative integration efficiency (log2)” value [2] was -0.245 ± 0.21.

TA T76A T78G C87A A96C T110A T113A was tested, and the “relative integration efficiency (log2)” value [1] was -0.0777 ± 0.55 and the “relative integration efficiency (log2)” value [2] was -0.0885 ± 0.14.

For TA T76A T78G C87A A96C T112G T113C, the “relative integration efficiency (log2)” value [1] was 0.518 ± 0.51 and the “relative integration efficiency (log2)” value [2] was 0.206 ± 0.018.

In the case of TA T76A T78G C87A A102T T111C T113C, the “relative integration efficiency (log2)” value [1] is reported as -0.0555 ± 0.34 and the “relative integration efficiency (log2)” value [2] is reported as -0.0993 ± 0.033.

TA T76A T78G C87A T104A T110A T113A was tested, and the “relative integration efficiency (log2)” value [1] was 0.215 ± 0.49 and the “relative integration efficiency (log2)” value [2] was -0.291 ± 0.22.

With TA T76A T78G C87A T104G T113A the “relative integration efficiency (log2)” value [1] was -0.127 ± 0.0086 and the “relative integration efficiency (log2)” value [2] was -0.3 ± 0.22.

In the case of CA T104A T110A T113A, the “relative integration efficiency (log2)” value [1] is reported as -0.182 ± 0.39 and the “relative integration efficiency (log2)” value [2] is reported as -0.656 ± 0.2.

CA T104G T113A was tested, and the “relative integration efficiency (log2)” value [1] was -0.00439 ± 0.14 and the “relative integration efficiency (log2)” value [2] was -0.216 ± 0.19.

For CC, the “relative integration efficiency (log2)” value [1] was 0.321 ± 0.75 and the “relative integration efficiency (log2)” value [2] was -0.0693 ± 0.024.

CC A21T A22T A23T G24C A75T T76A A77T T78A A101T A102T T104A was tested, and the “relative integration efficiency (log2)” value [1] was -2.73 ± 1.6 and the “relative integration efficiency (log2)” value [2] was -2.03 ± 0.58.

With CC A22T A23T G24C T25A T76A A77T T78A T79A A102T T104A T105A the “relative integration efficiency (log2)” value [1] was -2.83 ± 0.82 and the “relative integration efficiency (log2)” value [2] was -3 ± 1.3.

For CC A22T A23T G24C T76A A77T T78A A102T T104A, the “relative integration efficiency (log2)” value [1] was -0.143 ± 0.92 and the “relative integration efficiency (log2)” value [2] was -0.196 ± 0.36.

For CC A22T A23T T76A A77T A102T, the “relative integration efficiency (log2)” value [1] was -0.252 ± 0.23 and the “relative integration efficiency (log2)” value [2] was -0.313 ± 0.27.

In the case of CC A23T A77T, the “relative integration efficiency (log2)” value [1] is reported as 0.131 ± 0.37 and the “relative integration efficiency (log2)” value [2] is reported as -0.225 ± 0.1.

For CC A23T G24C A77T T78A T104A, the “relative integration efficiency (log2)” value [1] was -0.642 ± 0.69 and the “relative integration efficiency (log2)” value [2] was -0.611 ± 0.28.

With CC A101T A102T T104A the “relative integration efficiency (log2)” value [1] was -0.0376 ± 0.63 and the “relative integration efficiency (log2)” value [2] was -0.0794 ± 0.32.

CC A102T was tested, and the “relative integration efficiency (log2)” value [1] was 0.202 ± 0.2 and the “relative integration efficiency (log2)” value [2] was -0.155 ± 0.12.

With CC A102T T104A T105A the “relative integration efficiency (log2)” value [1] was -0.708 ± 0.07 and the “relative integration efficiency (log2)” value [2] was -0.322 ± 0.48.

In the case of CC T100A A101T A102T, the “relative integration efficiency (log2)” value [1] is reported as -0.124 ± 0.68 and the “relative integration efficiency (log2)” value [2] is reported as -0.77 ± 0.44.

With CC T104A the “relative integration efficiency (log2)” value [1] was -0.472 ± 0.64 and the “relative integration efficiency (log2)” value [2] was -0.478 ± 0.0072.

With CC T104A T105A G106C the “relative integration efficiency (log2)” value [1] was -2.2109 ± 0.0012 and the “relative integration efficiency (log2)” value [2] was -1.71 ± 0.67.

With AG the “relative integration efficiency (log2)” value [1] was 0.27 ± 0.094 and the “relative integration efficiency (log2)” value [2] was 0.00541 ± 0.045.

TG was tested, and the “relative integration efficiency (log2)” value [1] was 0.322 ± 0.57 and the “relative integration efficiency (log2)” value [2] was 0.126 ± 0.046.

For GG, the “relative integration efficiency (log2)” value [1] was -0.397 ± 0.89 and the “relative integration efficiency (log2)” value [2] was -0.0172 ± 0.13.

For CG, the “relative integration efficiency (log2)” value [1] was -0.0136 ± 0.21 and the “relative integration efficiency (log2)” value [2] was -0.00322 ± 0.1.

For CG A1C, the “relative integration efficiency (log2)” value [1] was 0.307 ± 0.19 and the “relative integration efficiency (log2)” value [2] was -0.0236 ± 0.1.

CG A1C A2C was tested, and the “relative integration efficiency (log2)” value [1] was -0.0923 ± 0.12 and the “relative integration efficiency (log2)” value [2] was -0.242 ± 0.0032.

CG A1C A2C T3G G4T was tested, and the “relative integration efficiency (log2)” value [1] was -0.0427 ± 0.68 and the “relative integration efficiency (log2)” value [2] was -0.346 ± 0.11.

In the case of CG A1C A2C T3G G4T T5G, the “relative integration efficiency (log2)” value [1] is reported as -0.299 ± 0.17 and the “relative integration efficiency (log2)” value [2] is reported as -0.197 ± 0.14.

In the case of CG A1C A2G T3C G4C T5G, the “relative integration efficiency (log2)” value [1] is reported as -0.385 ± 0.32 and the “relative integration efficiency (log2)” value [2] is reported as -0.219 ± 0.027.

With CG A1G the “relative integration efficiency (log2)” value [1] was 0.115 ± 0.63 and the “relative integration efficiency (log2)” value [2] was 0.133 ± 0.095.

CG A1T was tested, and the “relative integration efficiency (log2)” value [1] was 0.281 ± 0.54 and the “relative integration efficiency (log2)” value [2] was 0.063 ± 0.045.

In the case of CG A1T A2T, the “relative integration efficiency (log2)” value [1] is reported as 0.429 ± 0.098 and the “relative integration efficiency (log2)” value [2] is reported as 0.223 ± 0.059.

In the case of CG A1T A2T G4T T5G, the “relative integration efficiency (log2)” value [1] is reported as -0.165 ± 0.16 and the “relative integration efficiency (log2)” value [2] is reported as -0.0703 ± 0.2.

For CG A1T A2T T3A G4C, the “relative integration efficiency (log2)” value [1] was 0.144 ± 0.82 and the “relative integration efficiency (log2)” value [2] was 0.164 ± 0.1.

In the case of CG A1T A2T T3A G4C T5A, the “relative integration efficiency (log2)” value [1] is reported as -0.0748 ± 0.54 and the “relative integration efficiency (log2)” value [2] is reported as 0.103 ± 0.061.

With CG A1T A2T T3A G4T T5A the “relative integration efficiency (log2)” value [1] was -0.359 ± 0.037 and the “relative integration efficiency (log2)” value [2] was -0.373 ± 0.043.

In the case of CG A2C, the “relative integration efficiency (log2)” value [1] is reported as 0.61035 ± 0.00046 and the “relative integration efficiency (log2)” value [2] is reported as -0.0562 ± 0.037.

For CG A2C T3G, the “relative integration efficiency (log2)” value [1] was 0.286 ± 0.049 and the “relative integration efficiency (log2)” value [2] was -0.0688 ± 0.0099.

CG A2C T3G G4T T5G was tested, and the “relative integration efficiency (log2)” value [1] was -0.014 ± 0.12 and the “relative integration efficiency (log2)” value [2] was -0.514 ± 0.095.

In the case of CG A2G, the “relative integration efficiency (log2)” value [1] is reported as 0.28 ± 0.065 and the “relative integration efficiency (log2)” value [2] is reported as 0.239 ± 0.039.

In the case of CG A2T, the “relative integration efficiency (log2)” value [1] is reported as 0.355 ± 0.34 and the “relative integration efficiency (log2)” value [2] is reported as -0.141 ± 0.054.

With CG A2T T3A the “relative integration efficiency (log2)” value [1] was 0.399 ± 0.43 and the “relative integration efficiency (log2)” value [2] was 0.191 ± 0.092.

With CG A2T T3A G4C T5A the “relative integration efficiency (log2)” value [1] was -0.131 ± 0.037 and the “relative integration efficiency (log2)” value [2] was -0.0191 ± 0.036.

CG A11C was tested, and the “relative integration efficiency (log2)” value [1] was 0.113 ± 0.091 and the “relative integration efficiency (log2)” value [2] was -0.401 ± 0.34.

For CG A11C T12G, the “relative integration efficiency (log2)” value [1] was -1.34 ± 0.53 and the “relative integration efficiency (log2)” value [2] was -0.436 ± 0.26.

CG A11C T12G G13T C14A was tested, and the “relative integration efficiency (log2)” value [1] was -1.55 ± 0.089 and the “relative integration efficiency (log2)” value [2] was -0.699 ± 0.47.

For CG A11G, the “relative integration efficiency (log2)” value [1] was -0.67 ± 0.84 and the “relative integration efficiency (log2)” value [2] was 0.0387 ± 0.29.

For CG A11T, the “relative integration efficiency (log2)” value [1] was -0.735 ± 0.14 and the “relative integration efficiency (log2)” value [2] was -0.00672 ± 0.034.

For CG A11T T12A, the “relative integration efficiency (log2)” value [1] was -1.18 ± 0.28 and the “relative integration efficiency (log2)” value [2] was -0.325 ± 0.19.

With CG A11T T12A G13C C14G the “relative integration efficiency (log2)” value [1] was -2.81 ± 1.2 and the “relative integration efficiency (log2)” value [2] was -0.558 ± 0.43.

In the case of CG A15C, the “relative integration efficiency (log2)” value [1] is reported as 0.321 ± 0.27 and the “relative integration efficiency (log2)” value [2] is reported as 0.0839 ± 0.1.

CG A15C A16C was tested, and the “relative integration efficiency (log2)” value [1] was -0.641 ± 0.48 and the “relative integration efficiency (log2)” value [2] was 0.081 ± 0.27.

In the case of CG A15C A16C C17A C18A, the “relative integration efficiency (log2)” value [1] is reported as -2.02 ± 1.9 and the “relative integration efficiency (log2)” value [2] is reported as -1.89 ± 0.66.

CG A15C A69C A95C was tested, and the “relative integration efficiency (log2)” value [1] was -0.511 ± 0.34 and the “relative integration efficiency (log2)” value [2] was -0.731 ± 0.34.

With CG A15G the “relative integration efficiency (log2)” value [1] was -0.118 ± 0.26 and the “relative integration efficiency (log2)” value [2] was -0.121 ± 0.26.

For CG A15T, the “relative integration efficiency (log2)” value [1] was 0.37 ± 0.27 and the “relative integration efficiency (log2)” value [2] was -0.148 ± 0.14.

For CG A15T A16T, the “relative integration efficiency (log2)” value [1] was -0.556 ± 0.6 and the “relative integration efficiency (log2)” value [2] was -0.219 ± 0.36.
